Test results: the supplement of paper PMC12042874
± gives the uncertainty stated by the source.

Assay: amyloid nucleation score (Sup35N fusion, yeast selection) (log enrichment); library NNK1; higher = more nucleation; inactive = no reads after selection
Outline: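 Three technical output replicates were used for random libraries. Psi-negative yeast expressing peptides of 20 random codons fused to Sup35N were induced with 100 μM copper sulfate for 24 hours and grown 7 days at 30°C on medium lacking adenine and uracil, and input and output plasmid inserts were Illumina-sequenced, excluding sequences with under 100 input reads. The nucleation score is the DiMSum log enrichment of output over input reads, centred on the mode score of non-aggregating sequences.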

Substance	amyloid nucleation score
SLYELPWDNYP	-0.043 ± 1.4
SMCNEVDGTDGYAAIGLYMY	-1.65 ± 2.4
SMDTLLHP	-0.155 ± 0.23
SMFYLSKFAVEFWRRMS	-0.097 ± 0.44
SMIGRSCYEV	inactive
SMLMFIQIV	1.96 ± 0.1
SMLYFRNFRASLLPWAVDFT	-0.496 ± 1.7
SMRWVDL	1.19 ± 0.97
SMSHGWGLLDFLWADCWWPK	-0.031 ± 1
SMTVNDTLLRLRVGSAILYF	-0.852 ± 0.4
SMVNNWIMDCLWAILWVIDI	inactive
SMVTQLRSDNLGHWANSESR	0.108 ± 0.34
SMYVPCRFSTDSTMLPNELK	-0.19 ± 0.66
SNFCDSDLYLFRNWPYYWHS	-0.434 ± 0.26
SNFSYMSCLLGYLPLILFAA	0.014 ± 0.21
SNIKLGFLRSLHIMKTSSDL	-0.113 ± 0.41
SNKIGVCSKLMISFPCIEYN	-0.065 ± 1.1
SNNGCRIQRGVRNLAKGSTL	-1.09 ± 0.9
SNPIRTNV	-0.533 ± 0.38
SNPRTFNDPSKPRV	0.518 ± 0.35
SNQAHSMLISTIIMILGCYC	0.419 ± 0.34
SNRALMADLKERNVINTPIN	-0.385 ± 1.9
SNREFLQSVVLW	0.209 ± 0.48
SNRGRNLGSYCVGNYFGCFT	-0.224 ± 1.7
SNSLFNVSQSRSSKSLYQNA	0.264 ± 0.97

Substance	amyloid nucleation score
SNTSRLVRRVVQSPYTTCGG	0.312 ± 0.46
SNTTIFFSFNRVPTISLNHS	3.82 ± 0.1
SNYDIWRPILSRWSDREGWV	1.34 ± 0.36
SPCLLF	-0.637 ± 2.1
SPEFEEAWDGIKFYCKGANP	-1.09 ± 1.2
SPEGSPNEHDYTIPAVRGGP	0.775 ± 0.38
SPFPGKEFNGIVCPLPYSMI	-0.366 ± 0.56
SPHTI	4.92 ± 0.097
SPLNKMVTFVAVLAFVFVLV	0.114 ± 0.66
SPSFYFH	-0.019 ± 0.98
SPTTRTCNLVKIQGTNLSHR	1.36 ± 0.66
SPWSSNRYVLNSFYLSHPRR	-0.308 ± 0.32
SQHDRKYHYTIGYAQELDGL	-0.235 ± 0.43
SQLESFWVYMQLRGMTYTVA	-0.081 ± 0.31
SQLGMAWLSHGVDLPIRFYK	0.241 ± 1.4
SQLWCLTNKHRKQQRKAGHY	0.027 ± 0.53
SQPMSS	0.591 ± 0.31
SQVMSRLLGKFKLY	-0.609 ± 0.32
SRDEFCG	-0.326 ± 0.47
SRGRSNAALSLRKFVGGFCL	inactive
SRIGTCGLNSCCLINNIVRD	6.919 ± 0.045
SRLVFGHTNRRNSIEQTELL	inactive
SRRWGLN	inactive
SRTVTLFHHASNKSFHSSVS	-0.074 ± 0.9
SRVSTFGWIIRSEYYFFWAW	0.666 ± 0.32

Substance	amyloid nucleation score
SRVVFTSM	-1.18 ± 1.6
SRYLDIEVLSHGMNWMTFQT	-0.005 ± 0.77
SSCLEGCKSEACGWSNDGPG	-0.048 ± 0.76
SSDMGFFARYLSLNH	0.512 ± 0.55
SSFQGPSYSSCIRQHRNTRI	-0.614 ± 0.67
SSFSLGHVDGYKSTSVDAVL	0.048 ± 1.4
SSGFVYIYSSKSLGANSKNL	-0.176 ± 1
SSGPVFYKLPRLHCVGSHRH	0.603 ± 0.5
SSGQLSNKYC	0.786 ± 0.46
SSGVSNQSIQDIDMRLVYFA	0.06 ± 0.35
SSILDHLAAFVRRWFVYALL	-0.591 ± 0.98
SSILISFI	-0.471 ± 0.94
SSIVIRTCKWYGTVCIWELL	-0.339 ± 0.39
SSKMNILP	0.51 ± 0.26
SSLMPIYRLFLWFVKVYVKP	9.39 ± 0.049
SSLQFEMVFGTCYCRKSYSR	4.19 ± 0.082
SSNFLRILIGTFVRYRV	0.073 ± 0.37
SSQVIVCDVYSQVTRFSFCE	0.557 ± 0.29
SSSGMVDSVSYDLRGRVGLR	0.29 ± 0.3
SSSIVLCAVRCSRPSWFGML	1.45 ± 0.32
SSSSYIYCYFFPQSMVMVFS	3.66 ± 0.1
SSSVCASFAVWSCCASF	4.52 ± 0.084
SSVCFVNRGSWPYSKVFNGC	-0.019 ± 0.37
SSWFFYQNIAVSYSNKAINF	0.379 ± 0.17
SSWSFHARWRVRAISCACN	-0.062 ± 0.51

Substance	amyloid nucleation score
SSYVMVCMKTYWCQEL	2.45 ± 0.18
STCGCRPGLLFWARSPYN	-0.367 ± 0.63
STCLGGERSYRYVMWLVLVV	0.148 ± 0.42
STDVEGRFTEMLSELMLYVD	inactive
STEIATKGGGQLGIISTNDA	0.254 ± 0.56
STFIVGMRYVPLSKGR	-0.513 ± 1
STGLACSSWQAFIYLCLLYY	-0.516 ± 1.1
STGPAFDSKGVSTAMSRASF	inactive
STHCFWVTPGD	0.483 ± 0.83
STILKWRSWLARFLIHMVVV	0.659 ± 0.47
STNACRPVMAQGDHGLSVLR	0.283 ± 0.6
STNFLWTTFGFFHVCLDGAM	-0.218 ± 0.92
STNIFSYATLSGFYTVTMIR	-0.618 ± 0.49
STSILGANFALVWSEVVTVS	-0.023 ± 0.66
STSMDPLYYDYDRLYKIHDK	0.484 ± 0.61
STVNGICSRKLAIRELFSNH	-0.063 ± 0.26
SVASGVMFRAYCFWWAARKV	0.27 ± 0.47
SVCGH	-0.237 ± 0.37
SVCPKINLLNFVWNYYAPTA	6.869 ± 0.064
SVDIAINALS	0.492 ± 0.41
SVDVHYAGRSC	0.552 ± 0.36
SVENQNIKRYT	1.28 ± 0.33
SVFQVCFWFKYKRR	0.201 ± 0.43
SVIAVSLETQVIAWVRYYPK	-0.315 ± 0.55
SVLFNAAFFKFQNRF	0.5 ± 0.6

Substance	amyloid nucleation score
SVLTSMSITCWWKFWVGMSM	-0.731 ± 1.4
SVMDCSFFVLPLCFGCDQKF	-0.987 ± 0.46
SVNLSI	-0.196 ± 0.37
SVNVRVTDYKYRGLFACAFG	0.529 ± 0.58
SVPKLKAEVE	-0.273 ± 0.2
SVPVQD	0.633 ± 0.4
SVQRAV	-0.489 ± 1.7
SVRCCRFGIGGYWP	-1.07 ± 1
SVRVPWLASFCSKFMSGAYI	0.058 ± 0.41
SVSEGRVGLYNCG	0.449 ± 0.89
SVSGLYQHRSF	0.184 ± 0.35
SVSRYDFEVGVMGHKCCITT	-0.359 ± 0.42
SVSYTPVLHCCYCIMKWNPW	5.19 ± 0.062
SVTHKTKCRLQFGVEMGQN	1.13 ± 0.8
SVVLMLKYRYMHLTGLWSWS	0.16 ± 0.46
SVWVENLEFIWRYLPSSVYP	0.076 ± 0.3
SWCNAYPQWWVRSLSMPS	-0.236 ± 0.55
SWCPSQEWFMRYVFSTMCRT	0.302 ± 0.57
SWCSCQV	1.16 ± 0.6
SWLGPRWSFWFWFFIWSSGL	1.37 ± 0.74
SWRHMFYGVILGWHICSSGS	0.925 ± 0.28
SWRLK	3.35 ± 0.073
SWYGVYPFEIGFESGLESTL	-0.429 ± 0.41
SYARTFMDLHNGSRH	-0.013 ± 0.25
SYCFFYDDMRTWWFYS	4.4 ± 0.11

Substance	amyloid nucleation score
SYFVIFSGTM	inactive
SYGHLRAFFEDCSH	-0.145 ± 0.51
SYNWMVVFVYECI	0.931 ± 0.57
SYRSEGAMETLIDGRLSDLS	1.16 ± 0.76
SYSFWPMQLTCYFFDVGRCL	7.434 ± 0.073
SYTFSVYLVNWDGF	2.43 ± 0.26
SYYDSQYGLYGESVCL	0.738 ± 0.72
SYYSGFRMATVSHRIRWRSM	1.88 ± 0.7
TAAGSNQSEAFFFTNIISE	0.078 ± 0.84
TAFVILLDHGGCDSRVIYEG	0.043 ± 0.69
TAGLIILINSYASGRLTGDP	6.639 ± 0.049
TAILLNVFKCSIFWVALK	-0.691 ± 0.72
TAIWTSIIDL	0.96 ± 0.42
TASLLLTLLFGLPEGLLW	0.975 ± 0.3
TCCVKCGCRVQRMMMCLV	-0.003 ± 0.8
TCEESEDDGGIMAVPDWM	-0.42 ± 0.57
TCIISTDGCMQAGHFVGDRR	-0.69 ± 0.54
TCIVSWWYSQDGSWEMCLQR	inactive
TCKTCLR	0.858 ± 1.1
TCRESMRYVDNGLAFYSWFY	-0.983 ± 0.56
TCRKTTMQRRSTHNLVKCDE	-1.47 ± 2.7
TCRTEKTNTELMG	1.78 ± 0.6
TCVSYTP	1.75 ± 0.56
TCYGQAVFLTDCSGRWDIYE	3.34 ± 0.16
TCYLSDSLASY	-0.328 ± 0.54

Substance	amyloid nucleation score
TDARTR	1.15 ± 0.36
TDCHALRMWIFAGFWWHNFS	-1.04 ± 0.84
TDQVWMLVSRRFKHFRHIEV	1.38 ± 0.2
TEDAQRGD	-0.302 ± 0.5
TEEKSRVRLFNRRHRGISRG	3.95 ± 0.091
TEGFGW	1.28 ± 0.35
TEMDDF	0.875 ± 0.54
TEVWCIQLY	0.787 ± 0.46
TEYVTLLGLSLGFVLASLGA	0.283 ± 0.43
TFADNF	-1.28 ± 1.1
TFGPTHLGLVKYVEIDYHVA	-0.725 ± 0.9
TFIYSRECRRTSVWQPFNNR	-0.704 ± 0.65
TFMAARQWLGPNYDGGQGLK	-0.2 ± 1
TFVACDLKCPRCAWVGDFVM	-0.912 ± 0.5
TGFKI	-0.973 ± 0.97
TGLCDRLRSLEGAAAVR	0.514 ± 0.49
TGLSCCCMNISRNGREMVPR	6.281 ± 0.058
TGLVLVGMSVSCVRYRCSND	0.009 ± 0.39
TGLWNRIEVPVDKTEAKQPV	0.076 ± 0.42
TGNGRDVLHSSALKVPNRR	0.715 ± 0.43
TGNHSEVTT	0.233 ± 0.32
TGSTR	0.391 ± 0.22
TGVRHATTC	1.13 ± 0.19
